B1: DVD2783 (bispecific antibody, IgG1)
VH: EVQLVQSGAEVKKPGASVKVSCKASGYTFANYGIIWVRQAPGQGLEWMGWINTYTGKPTYAQKFQGRVTMTTDTSTSTAYMELSSLRSEDTAVYYCARKLFTTMDVTDNAMDYWGQGTTVTVSSGGGGSGGGGSEVTLRESGPGLVKPTQTLTLTCTLYGFSLSTSDMGVDWIRQPPGKGLEWLAHIWWDDVKRYNPALKSRLTISKDTSKNQVVLKLTSVDPVDTATYYCARTVSSGYIYYAMDYWGQGTLVTVSS
VL: DIQMTQSPSSLSASVGDRVTITCRASQDISQYLNWYQQKPGKAPKLLIYYTSRLQSGVPSRFSGSGSGTDFTLTISSLQPEDFATYFCQQGNTWPPTFGQGTKLEIKRGGSGGGGSGDIQMTQSPSSLSASVGDRVTISCRASQDIRNYLNWYQQKPGKAPKLLIFYTSKLHSGVPSRFSGSGSGTDYTLTISSLQPEDIATYYCQQGLTPPLTFGGGTKVEIKR
B2: DVD2688 (bispecific antibody, IgG1)
VH: EVTLRESGPGLVKPTQTLTLTCTLYGFSLSTSDMGVDWIRQPPGKGLEWLAHIWWDDVKRYNPALKSRLTISKDTSKNQVVLKLTSVDPVDTATYYCARTVSSGYIYYAMDYWGQGTLVTVSSGGGGSGGGGSEVQLVESGGGLVQPGGSLRLSCAASGFTFSNYGVTWVRQAPGKGLEWVSMIWADGSTHYASSVKGRFTISRDNSKNTLYLQMNSLRAEDTAVYYCAREWQHGPVAYWGQGTLVTVSS
VL: DIQMTQSPSSLSASVGDRVTISCRASQDIRNYLNWYQQKPGKAPKLLIFYTSKLHSGVPSRFSGSGSGTDYTLTISSLQPEDIATYYCQQGLTPPLTFGGGTKVEIKRGGSGGGGSGDIQMTQSPSSLSASVGDRVTITCRASQLVSSAVAWYQQKPGKAPKLLIYWASARHTGVPSRFSGSGSGTDFTLTISSLQPEDFATYYCQQHYKTPFTFGQGTKLEIKR
B3: DVD2738 (bispecific antibody, IgG1)
VH: EVTLRESGPGLVKPTQTLTLTCTLYGFSLSTSDMGVDWIRQPPGKGLEWLAHIWWDDVKRYNPALKSRLTISKDTSKNQVVLKLTSVDPVDTATYYCARTVSSGYIYYAMDYWGQGTLVTVSSGGGGSGGGGSEVQLVESGGGLVQPGGSLRLSCAASGFTFSNYGVEWVRQAPGKGLEWVSGIWADGSTHYADTVKSRFTISRDNSKNTLYLQMNSLRAEDTAVYYCAREWQHGPVAYWGQGTLVTVSS
VL: DIQMTQSPSSLSASVGDRVTISCRASQDIRNYLNWYQQKPGKAPKLLIFYTSKLHSGVPSRFSGSGSGTDYTLTISSLQPEDIATYYCQQGLTPPLTFGGGTKVEIKRGGSGGGGSGDIQMTQSPSSLSASVGDRVTITCKASQLVSSAVAWYQQKPGKAPKLLIYWASTLHTGVPSRFSGSGSGTDFTLTISSLQPEDFATYYCQQHYRTPFTFGQGTKLEIKR
B4: DVD2784 (bispecific antibody, IgG1)
VH: EVQLVQSGAEVKKPGASVKVSCKASGYTFANYGIIWVRQAPGQGLEWMGWINTYTGKPTYAQKFQGRVTMTTDTSTSTAYMELSSLRSEDTAVYYCARKLFTTMDVTDNAMDYWGQGTTVTVSSASTKGPEVTLRESGPGLVKPTQTLTLTCTLYGFSLSTSDMGVDWIRQPPGKGLEWLAHIWWDDVKRYNPALKSRLTISKDTSKNQVVLKLTSVDPVDTATYYCARTVSSGYIYYAMDYWGQGTLVTVSS
VL: DIQMTQSPSSLSASVGDRVTITCRASQDISQYLNWYQQKPGKAPKLLIYYTSRLQSGVPSRFSGSGSGTDFTLTISSLQPEDFATYFCQQGNTWPPTFGQGTKLEIKRTVAAPDIQMTQSPSSLSASVGDRVTISCRASQDIRNYLNWYQQKPGKAPKLLIFYTSKLHSGVPSRFSGSGSGTDYTLTISSLQPEDIATYYCQQGLTPPLTFGGGTKVEIKR
B5: DVD2787 (bispecific antibody, IgG1)
VH: EVQLVQSGAEVKKPGASVKVSCKASGYTFANYGIIWVRQAPGQGLEWMGWINTYTGKPTYAQKFQGRVTMTTDTSTSTAYMELSSLRSEDTAVYYCARKLFTTMDVTDNAMDYWGQGTTVTVSSASTKGPSVFPLAPEVTLRESGPGLVKPTQTLTLTCTLYGFSLSTSDMGVDWIRQPPGKGLEWLAHIWWDDVKRYNPALKSRLTISKDTSKNQVVLKLTSVDPVDTATYYCARTVSSGYIYYAMDYWGQGTLVTVSS
VL: DIQMTQSPSSLSASVGDRVTITCRASQDISQYLNWYQQKPGKAPKLLIYYTSRLQSGVPSRFSGSGSGTDFTLTISSLQPEDFATYFCQQGNTWPPTFGQGTKLEIKRTVAAPDIQMTQSPSSLSASVGDRVTISCRASQDIRNYLNWYQQKPGKAPKLLIFYTSKLHSGVPSRFSGSGSGTDYTLTISSLQPEDIATYYCQQGLTPPLTFGGGTKVEIKR
B6: DVD2786 (bispecific antibody, IgG1)
VH: EVQLVQSGAEVKKPGASVKVSCKASGYTFANYGIIWVRQAPGQGLEWMGWINTYTGKPTYAQKFQGRVTMTTDTSTSTAYMELSSLRSEDTAVYYCARKLFTTMDVTDNAMDYWGQGTTVTVSSASTKGPEVTLRESGPGLVKPTQTLTLTCTLYGFSLSTSDMGVDWIRQPPGKGLEWLAHIWWDDVKRYNPALKSRLTISKDTSKNQVVLKLTSVDPVDTATYYCARTVSSGYIYYAMDYWGQGTLVTVSS
VL: DIQMTQSPSSLSASVGDRVTITCRASQDISQYLNWYQQKPGKAPKLLIYYTSRLQSGVPSRFSGSGSGTDFTLTISSLQPEDFATYFCQQGNTWPPTFGQGTKLEIKRTVAAPSVFIFPPDIQMTQSPSSLSASVGDRVTISCRASQDIRNYLNWYQQKPGKAPKLLIFYTSKLHSGVPSRFSGSGSGTDYTLTISSLQPEDIATYYCQQGLTPPLTFGGGTKVEIKR
B7: DVD2689 (bispecific antibody, IgG1)
VH: EVTLRESGPGLVKPTQTLTLTCTLYGFSLSTSDMGVDWIRQPPGKGLEWLAHIWWDDVKRYNPALKSRLTISKDTSKNQVVLKLTSVDPVDTATYYCARTVSSGYIYYAMDYWGQGTLVTVSSASTKGPEVQLVESGGGLVQPGGSLRLSCAASGFTFSNYGVTWVRQAPGKGLEWVSMIWADGSTHYASSVKGRFTISRDNSKNTLYLQMNSLRAEDTAVYYCAREWQHGPVAYWGQGTLVTVSS
VL: DIQMTQSPSSLSASVGDRVTISCRASQDIRNYLNWYQQKPGKAPKLLIFYTSKLHSGVPSRFSGSGSGTDYTLTISSLQPEDIATYYCQQGLTPPLTFGGGTKVEIKRTVAAPDIQMTQSPSSLSASVGDRVTITCRASQLVSSAVAWYQQKPGKAPKLLIYWASARHTGVPSRFSGSGSGTDFTLTISSLQPEDFATYYCQQHYKTPFTFGQGTKLEIKR
B8: DVD2692 (bispecific antibody, IgG1)
VH: EVTLRESGPGLVKPTQTLTLTCTLYGFSLSTSDMGVDWIRQPPGKGLEWLAHIWWDDVKRYNPALKSRLTISKDTSKNQVVLKLTSVDPVDTATYYCARTVSSGYIYYAMDYWGQGTLVTVSSASTKGPSVFPLAPEVQLVESGGGLVQPGGSLRLSCAASGFTFSNYGVTWVRQAPGKGLEWVSMIWADGSTHYASSVKGRFTISRDNSKNTLYLQMNSLRAEDTAVYYCAREWQHGPVAYWGQGTLVTVSS
VL: DIQMTQSPSSLSASVGDRVTISCRASQDIRNYLNWYQQKPGKAPKLLIFYTSKLHSGVPSRFSGSGSGTDYTLTISSLQPEDIATYYCQQGLTPPLTFGGGTKVEIKRTVAAPDIQMTQSPSSLSASVGDRVTITCRASQLVSSAVAWYQQKPGKAPKLLIYWASARHTGVPSRFSGSGSGTDFTLTISSLQPEDFATYYCQQHYKTPFTFGQGTKLEIKR
B9: DVD2739 (bispecific antibody, IgG1)
VH: EVTLRESGPGLVKPTQTLTLTCTLYGFSLSTSDMGVDWIRQPPGKGLEWLAHIWWDDVKRYNPALKSRLTISKDTSKNQVVLKLTSVDPVDTATYYCARTVSSGYIYYAMDYWGQGTLVTVSSASTKGPEVQLVESGGGLVQPGGSLRLSCAASGFTFSNYGVEWVRQAPGKGLEWVSGIWADGSTHYADTVKSRFTISRDNSKNTLYLQMNSLRAEDTAVYYCAREWQHGPVAYWGQGTLVTVSS
VL: DIQMTQSPSSLSASVGDRVTISCRASQDIRNYLNWYQQKPGKAPKLLIFYTSKLHSGVPSRFSGSGSGTDYTLTISSLQPEDIATYYCQQGLTPPLTFGGGTKVEIKRTVAAPDIQMTQSPSSLSASVGDRVTITCKASQLVSSAVAWYQQKPGKAPKLLIYWASTLHTGVPSRFSGSGSGTDFTLTISSLQPEDFATYYCQQHYRTPFTFGQGTKLEIKR
B10: DVD2742 (bispecific antibody, IgG1)
VH: EVTLRESGPGLVKPTQTLTLTCTLYGFSLSTSDMGVDWIRQPPGKGLEWLAHIWWDDVKRYNPALKSRLTISKDTSKNQVVLKLTSVDPVDTATYYCARTVSSGYIYYAMDYWGQGTLVTVSSASTKGPSVFPLAPEVQLVESGGGLVQPGGSLRLSCAASGFTFSNYGVEWVRQAPGKGLEWVSGIWADGSTHYADTVKSRFTISRDNSKNTLYLQMNSLRAEDTAVYYCAREWQHGPVAYWGQGTLVTVSS
VL: DIQMTQSPSSLSASVGDRVTISCRASQDIRNYLNWYQQKPGKAPKLLIFYTSKLHSGVPSRFSGSGSGTDYTLTISSLQPEDIATYYCQQGLTPPLTFGGGTKVEIKRTVAAPDIQMTQSPSSLSASVGDRVTITCKASQLVSSAVAWYQQKPGKAPKLLIYWASTLHTGVPSRFSGSGSGTDFTLTISSLQPEDFATYYCQQHYRTPFTFGQGTKLEIKR
B11: DVD2741 (bispecific antibody, IgG1)
VH: EVTLRESGPGLVKPTQTLTLTCTLYGFSLSTSDMGVDWIRQPPGKGLEWLAHIWWDDVKRYNPALKSRLTISKDTSKNQVVLKLTSVDPVDTATYYCARTVSSGYIYYAMDYWGQGTLVTVSSASTKGPEVQLVESGGGLVQPGGSLRLSCAASGFTFSNYGVEWVRQAPGKGLEWVSGIWADGSTHYADTVKSRFTISRDNSKNTLYLQMNSLRAEDTAVYYCAREWQHGPVAYWGQGTLVTVSS
VL: DIQMTQSPSSLSASVGDRVTISCRASQDIRNYLNWYQQKPGKAPKLLIFYTSKLHSGVPSRFSGSGSGTDYTLTISSLQPEDIATYYCQQGLTPPLTFGGGTKVEIKRTVAAPSVFIFPPDIQMTQSPSSLSASVGDRVTITCKASQLVSSAVAWYQQKPGKAPKLLIYWASTLHTGVPSRFSGSGSGTDFTLTISSLQPEDFATYYCQQHYRTPFTFGQGTKLEIKR

molecular target: Recombinant Human TNF-α/TNFSF1A (human, UniProt P01375 77-233); experiment: cell-based or functional assay
Sequence (P01375 77-233 limits assumed): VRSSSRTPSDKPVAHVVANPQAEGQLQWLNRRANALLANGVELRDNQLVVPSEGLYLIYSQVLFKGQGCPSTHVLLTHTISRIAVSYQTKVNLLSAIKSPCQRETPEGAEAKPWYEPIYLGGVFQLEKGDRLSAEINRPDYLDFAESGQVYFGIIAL

Question: With B1 as the binder, how does the “N-Terminal VD huTNFα Neutralization Assay IC50” value read?
Answer: The value was 0.008 nM.

Question: B2 was tested. Which “C-Terminal VD huTNFα Neutralization Assay IC50” value did it give?
Answer: The value was 0.093 nM.

Question: How did the “C-Terminal VD huTNFα Neutralization Assay IC50” value turn out when B3 was run?
Answer: The value was 0.452 nM.

Question: Which “N-Terminal VD huTNFα Neutralization Assay IC50” value does the source give for B4 here?
Answer: The value was 0.006 nM.

Question: How did the “N-Terminal VD huTNFα Neutralization Assay IC50” value turn out when B5 was run?
Answer: The value was 0.005 nM.

Question: How did the “N-Terminal VD huTNFα Neutralization Assay IC50” value turn out when B6 was run?
Answer: The value was 0.008 nM.

Question: B7 was tested. Which “C-Terminal VD huTNFα Neutralization Assay IC50” value did it give?
Answer: Its value is 0.076 nM.

Question: Which “C-Terminal VD huTNFα Neutralization Assay IC50” value does the source give for B8 here?
Answer: Its value is 0.04 nM.

Question: B9 was tested. Which “C-Terminal VD huTNFα Neutralization Assay IC50” value did it give?
Answer: The value was 0.517 nM.

Question: Which “C-Terminal VD huTNFα Neutralization Assay IC50” value does the source give for B10 here?
Answer: Its value is 0.129 nM.

Question: For B11, which “C-Terminal VD huTNFα Neutralization Assay IC50” value is on record?
Answer: The value was 0.202 nM.

— patent US20140271457A1 (AbbVie / Abbott, published 2014)
